± gives the uncertainty stated by the source.
Assay: self-splicing fitness, log relative to wild type (ln ratio); higher = more splicing; Tetrahymena group I intron in knt gene, E. coli kanamycin selection, DiMSum; sequences stand for … in CUCUCU…GGAGGGAAAAGUUAUCAGGCAUGCACCUGGUAGCUAGUCUUUAAACCAAUAGAUUGCAUCGGUUUAAAAGGCAAGACCGUCAAAUUGCGGGAAAGGGGUCAACAGCCGUUCAGUACCAAGUCUCAGGGGAAACUUUGAGAUGGCCUUGCAAAGGGUAUGGUAAUAAGCUGACGGACAUGGUCCUAACCACGCAGCCAAGUCCUAAGUCAACAGAUCUUCUGUUGAUAUGGAUGCAGUUCACAGACUAAAUGUCGGUCGGGGAAGAUGUAUUCUUCUCAUAAGAUAUAGUCGGACCUCUCCUUAAUGGGAGCUAGCGGAUGAAGUGAUGCAACACUGGAGCCGCUGGGAACUAAUUUGUAUGCGAAAGUAUAUUGAUUAGUUUUGGAGUACUCGUGGUCG
Procedure, shortened: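 Pooled colonies went to amplicon sequencing on an Illumina HiSeq 2500 after six replicate transformations. The plates were LB agar with 100 μg/mL carbenicillin, 50 μM IPTG and 0.2% rhamnose, with or without 25 μg/mL kanamycin, incubated overnight at 37°C or 30°C. The E. coli BL21(DE3) library had all eight P1ex-region intron nucleotides randomised, the intron placed in the knt kanamycin-resistance gene on pET-22b(+). DiMSum fitness is the error-weighted combination of replicate fold changes, kanamycin against none, normalised to wild type.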

| Sequence | self-splicing fitness (ln) (30 °C) | self-splicing fitness (ln) (37 °C) |
| --- | --- | --- |
| CCCAAGCAAUAUUACGAGAG | -2.99 ± 0.079 | -1.93 ± 0.079 |
| AUACAGCAAUAUUACGCGGU | -3.44 ± 0.21 | -2.04 ± 0.18 |
| CGUAAGCAAUAUUACGUUGG | -1.93 ± 0.12 | -0.912 ± 0.13 |
| AGCAAGCAAUAUUACGUCAG | -2.89 ± 0.16 | -1.55 ± 0.18 |
| UGUAAGCAAUAUUACGACAG | -1.29 ± 0.11 | -0.146 ± 0.13 |
| AGCUAGCAAUAUUACGGAAU | -1.13 ± 0.16 | -2.07 ± 0.27 |
| CUCAAGCAAUAUUACGCCCG | -0.954 ± 0.17 | -2.11 ± 0.21 |
| GUCAAGCAAUAUUACGUAAG | -2.15 ± 0.073 | -1.57 ± 0.11 |
| UACGAGCAAUAUUACGUGUA | -3.39 ± 0.2 | -2.21 ± 0.16 |
| UGAUAGCAAUAUUACGUGGA | -3.45 ± 0.3 | -2.23 ± 0.2 |
| AUCAAGCAAUAUUACGUUUG | -2.87 ± 0.15 | -2.43 ± 0.18 |
| UAUUAGCAAUAUUACGAUGG | -1.24 ± 0.094 | -0.174 ± 0.11 |
| CUAGAGCAAUAUUACGCGUG | -0.446 ± 0.1 | -0.476 ± 0.12 |
| CCUGAGCAAUAUUACGGCAG | -2.92 ± 0.34 | -0.802 ± 0.17 |
| ACAUAGCAAUAUUACGCACA | -0.98 ± 0.099 | -0.0165 ± 0.12 |
| GGUUAGCAAUAUUACGAUUA | -0.191 ± 0.13 | 0.0365 ± 0.12 |
| GCGUAGCAAUAUUACGGCAU | -0.91 ± 0.061 | -0.0121 ± 0.072 |
| GGGAAGCAAUAUUACGGAUG | -3.55 ± 0.21 | -1.15 ± 0.15 |
| AGCCAGCAAUAUUACGGAGU | -2.69 ± 0.19 | -1.66 ± 0.14 |
| UCAGAGCAAUAUUACGAACU | -2.02 ± 0.33 | – |
| AGGAAGCAAUAUUACGCCUU | -2.67 ± 0.2 | -0.955 ± 0.18 |
| AAGCAGCAAUAUUACGACGG | -2.19 ± 0.088 | -1.17 ± 0.09 |
| CAAAAGCAAUAUUACGUGCU | -4.33 ± 0.2 | -2.27 ± 0.15 |
| UUGAAGCAAUAUUACGGGGA | -0.685 ± 0.08 | 0.372 ± 0.12 |
| UCUCAGCAAUAUUACGUAAA | -1.82 ± 0.15 | -1.04 ± 0.2 |
| UCAUAGCAAUAUUACGCACA | -1.21 ± 0.13 | -0.159 ± 0.11 |

| Sequence | self-splicing fitness (ln) (30 °C) | self-splicing fitness (ln) (37 °C) |
| --- | --- | --- |
| UUUCAGCAAUAUUACGGCUC | -1.77 ± 0.42 | 0.0864 ± 0.23 |
| UCUUAGCAAUAUUACGUAAU | -5 ± 0.45 | -2.58 ± 0.2 |
| ACGAAGCAAUAUUACGUUCC | -2.97 ± 0.2 | -1.29 ± 0.16 |
| UGCCAGCAAUAUUACGAAUG | -1.3 ± 0.18 | 0.0957 ± 0.17 |
| GGUCAGCAAUAUUACGUGCG | 0.397 ± 0.12 | -0.078 ± 0.13 |
| AGGCAGCAAUAUUACGUGCA | -1.01 ± 0.1 | -0.142 ± 0.14 |
| GUGUAGCAAUAUUACGGGCA | -0.665 ± 0.18 | -1.29 ± 0.19 |
| UACUAGCAAUAUUACGUCAC | -3.47 ± 0.26 | – |
| UUACAGCAAUAUUACGGGGG | -2.2 ± 0.14 | -1.77 ± 0.15 |
| AUGUAGCAAUAUUACGUUGC | -3.43 ± 0.27 | -3.08 ± 0.32 |
| CUCUAGCAAUAUUACGUGCC | -3.23 ± 0.28 | -3.62 ± 0.39 |
| UCCUAGCAAUAUUACGAAGG | -2.91 ± 0.15 | -2.1 ± 0.19 |
| UCGAAGCAAUAUUACGUGUC | – | -2.37 ± 0.37 |
| UCAGAGCAAUAUUACGUAGA | -0.896 ± 0.075 | 0.113 ± 0.12 |
| AGGGAGCAAUAUUACGGCUC | -2.18 ± 0.24 | – |
| ACUUAGCAAUAUUACGCGCU | -0.535 ± 0.094 | -0.305 ± 0.097 |
| CUAGAGCAAUAUUACGCAUC | -3.92 ± 0.29 | -2.65 ± 0.45 |
| CGUUAGCAAUAUUACGAUGU | -2.6 ± 0.26 | -1.78 ± 0.36 |
| CCGGAGCAAUAUUACGCCGG | – | -3.09 ± 0.28 |
| AGUGAGCAAUAUUACGCGGU | -3.93 ± 0.25 | -3.01 ± 0.23 |
| AAUCAGCAAUAUUACGUUCC | -2.26 ± 0.24 | -0.62 ± 0.22 |
| GUGAAGCAAUAUUACGCAAU | -0.705 ± 0.088 | -0.623 ± 0.12 |
| AAAAAGCAAUAUUACGUAAA | -1.82 ± 0.086 | -1.19 ± 0.09 |
| ACACAGCAAUAUUACGAUUA | -1.66 ± 0.087 | -0.929 ± 0.07 |
| UGUUAGCAAUAUUACGUCGU | -3.5 ± 0.33 | -2.69 ± 0.23 |
| GAAGAGCAAUAUUACGUACA | -3.17 ± 0.2 | -2.7 ± 0.18 |

| Sequence | self-splicing fitness (ln) (30 °C) | self-splicing fitness (ln) (37 °C) |
| --- | --- | --- |
| GAGUAGCAAUAUUACGAUGC | -1.79 ± 0.23 | -0.495 ± 0.26 |
| AGAAAGCAAUAUUACGUGAG | -1.39 ± 0.065 | -0.952 ± 0.099 |
| CUACAGCAAUAUUACGACCA | -2.7 ± 0.3 | -2.31 ± 0.35 |
| GCCAAGCAAUAUUACGACCA | -1.48 ± 0.17 | -1.36 ± 0.19 |
| UGUUAGCAAUAUUACGAGGU | -3.93 ± 0.28 | -2.8 ± 0.33 |
| GCUAAGCAAUAUUACGGAGU | -4.27 ± 0.27 | -3.14 ± 0.26 |
| UUACAGCAAUAUUACGAGGG | -3.1 ± 0.25 | -1.62 ± 0.21 |
| GUACAGCAAUAUUACGAGCA | -1.59 ± 0.13 | -1.12 ± 0.13 |
| ACAUAGCAAUAUUACGGCGG | -1.04 ± 0.049 | -0.52 ± 0.072 |
| UCGCAGCAAUAUUACGGUCG | -0.126 ± 0.094 | 0.0192 ± 0.14 |
| AAAAAGCAAUAUUACGUGCG | -0.427 ± 0.052 | -0.846 ± 0.064 |
| UAUCAGCAAUAUUACGACCC | -1.87 ± 0.15 | -1.71 ± 0.18 |
| GACAAGCAAUAUUACGGAUU | -2.16 ± 0.076 | -0.656 ± 0.076 |
| ACGCAGCAAUAUUACGUGAG | -1.19 ± 0.056 | -0.552 ± 0.07 |
| UACGAGCAAUAUUACGCUGA | -3 ± 0.26 | -2.02 ± 0.24 |
| GUUCAGCAAUAUUACGCAAC | -2.96 ± 0.22 | -1.48 ± 0.21 |
| CCCCAGCAAUAUUACGAGCU | -3.85 ± 0.19 | -2.85 ± 0.2 |
| UGAAAGCAAUAUUACGAAUC | -3.58 ± 0.21 | -2.53 ± 0.21 |
| UGUGAGCAAUAUUACGCGGU | -3.67 ± 0.37 | -0.807 ± 0.33 |
| CUGCAGCAAUAUUACGUGAU | -1.19 ± 0.072 | -0.758 ± 0.12 |
| UAGUAGCAAUAUUACGAGGU | -2.28 ± 0.36 | – |
| GGGCAGCAAUAUUACGUCCU | – | -3.02 ± 0.32 |
| AUGCAGCAAUAUUACGAAUG | -2.15 ± 0.17 | -2.51 ± 0.28 |
| GUAGAGCAAUAUUACGUUGU | -2.53 ± 0.3 | -0.699 ± 0.29 |
| GACGAGCAAUAUUACGAUUC | -1.39 ± 0.11 | -1.47 ± 0.17 |
